Measurements from article PMC9360328, “Tenuous Transcriptional Threshold of Human Sex Determination. I. SRY and Swyer Syndrome at the Edge of Ambiguity”.

Tests used:
Test in all cases: FRET titration; 15 C, 25 nM DNA; FRET titration: 10 mM potassium phosphate, 10 mM Tris-HCl, 140 mM KCl, 1 mM EDTA, 1 mM DTT, pH 8.4, 15 C, 25 nM DNA; PGE: 10 nM DNA, 20 nM protein, 0.5x TBE, 4
Conditions in all cases: protein: recombinant; label: 5'-6-FAM (hexanyl linker) on upper strand; 5'-TAMRA (hexanyl linker) on lower strand; blunt
SRY HMG box Y72C (Y127C) = SRY HMG box Y72C (Y127C) (Homo sapiens, UniProt Q05066 56-141, Y127C)
Chain of SRY HMG box Y72C (Y127C) (Q05066 56-141 Y127C): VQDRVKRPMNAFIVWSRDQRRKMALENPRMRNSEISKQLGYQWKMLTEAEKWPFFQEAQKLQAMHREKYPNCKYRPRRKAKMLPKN

SRY HMG box Y72H (Y127H) = SRY HMG box Y72H (Y127H) (Homo sapiens, UniProt Q05066 56-141, Y127H)
Chain of SRY HMG box Y72H (Y127H) (Q05066 56-141 Y127H): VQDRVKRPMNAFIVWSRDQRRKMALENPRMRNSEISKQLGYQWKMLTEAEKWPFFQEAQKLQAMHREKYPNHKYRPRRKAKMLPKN

SRY HMG box Y72F (Y127F) = SRY HMG box Y72F (Y127F) (Homo sapiens, UniProt Q05066 56-141, Y127F)
Chain of SRY HMG box Y72F (Y127F) (Q05066 56-141 Y127F): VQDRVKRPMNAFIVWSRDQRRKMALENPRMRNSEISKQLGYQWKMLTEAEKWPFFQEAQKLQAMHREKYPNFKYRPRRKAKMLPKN

B1: 15-bp consensus SRY site, FRET-labeled (dsDNA)
DNA 1: TCGGTGATTGTTCAG
DNA 2: CTGAACAATCACCGA
Kd (SRY HMG box Y72C (Y127C)): 21 ± 5 nM
Kd (SRY HMG box Y72H (Y127H)): 19 ± 4 nM
Kd (SRY HMG box Y72F (Y127F)): 12 ± 3 nM
